Article PMC5547543
Where two headings read alike, the source gives them in different places.

Key:
Hck (2PA-YEEI) [1] = target: Hck (2PA-YEEI) (UniProt P08631); assay: SPR; Hck (2PA-YEEI) amine-coupled (EDC/NHS) to a CMD 500 carboxymethyl dextran chip, 6053 RU, BIAcore 2000; Csk, Chk, Chk mutants and chimera as analytes in HBS (10 mM HEPES pH 7.4, 150 mM NaCl, 3.4 mM EDTA, 0.005% Tween 20); global fit to a 1 to 1 model with mass transfer; molecular binding activity from the maximum response
Hck (2PA-YEEI) [2] = target: Hck (2PA-YEEI) (UniProt P08631); assay: as above; remark: listed apart in the source

| Kd (Hck (2PA-YEEI) [1]) [µM] | fold reduction of kon against wild type Chk (Hck (2PA-YEEI) [2]) [fold] | koff (Hck (2PA-YEEI) [2]) [s⁻¹] | kon (Hck (2PA-YEEI) [2]) [M⁻¹ s⁻¹] | Kd (Hck (2PA-YEEI) [2]) [µM] | molecular binding activity (MBA) at 2.7 μM Csk (Hck (2PA-YEEI) [2]; scale: mol of analyte bound per mol of immobilized Hck) | Substance |
| --- | --- | --- | --- | --- | --- | --- |
| 0.295 | 3 |  |  |  |  | Chk (K387A) (from UniProt P42679-2 1-508) (enzyme) |
|  |  | 0.00031 | 243 |  |  | Csk-Chk chimera (from UniProt P41240 1-181; P42679 235-482) (enzyme) |
| 0.227 | 3 |  |  |  |  | Chk (R382A) (from UniProt P42679-2 1-508) (enzyme) |
| 13 |  | 0.0077 | 588 | 13.1 | 0.01 | C-terminal Src kinase (Csk), recombinant (from UniProt P41240 1-450) (enzyme) |
